In the supplement of paper PMC5998384:

Tests used:
HeLa Kyoto [1] = experiment: thermal stability score vs G1/S (z-score of summed log2 fold changes over temperatures); higher = more thermally stable than in G1/S
HeLa Kyoto [2] = experiment: solubility in G1/S (NP-40 vs SDS abundance) (log2 ratio); higher = more soluble; details: cell cycle stage: G1/S
HeLa Kyoto [3] = experiment: solubility change mitosis vs G1/S (difference of NP-40 vs SDS log2 ratios) (log2 ratio difference); higher = more soluble in mitosis
HeLa Kyoto [4] = experiment: melting temperature (median over replicates), in situ; higher = more thermally stable
[5] = cell cycle stage: early G1 (4.5 h after nocodazole release)
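For melting temperature (median over replicates), in situ in this document: HeLa Kyoto cells synchronized by double thymidine or nocodazole block, proteins quantified by TMT10plex mass spectrometry, three independent biological replicates.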
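For solubility change mitosis vs G1/S (difference of NP-40 vs SDS log2 ratios) in this document: synchronized HeLa Kyoto cells (double thymidine block for G1/S, nocodazole release for mitosis), protein amounts in NP-40 versus SDS lysates quantified by mass spectrometry, three biological replicates.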
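For solubility in G1/S (NP-40 vs SDS abundance) in this document: HeLa Kyoto cells arrested at G1/S by double thymidine block, proteins quantified by TMT10plex mass spectrometry in mild NP-40 versus SDS extracts, three biological replicates.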
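For thermal stability score vs G1/S (z-score of summed log2 fold changes over temperatures) in this document: synchronized HeLa Kyoto cells, proteins quantified by TMT10plex mass spectrometry, three biological replicates, mitosis taken 0.5 h after nocodazole release, G1/S directly after double thymidine block.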

Sequence	thermal stability score (HeLa Kyoto [1]; [5])	thermal stability score (HeLa Kyoto [1]; cell cycle stage: mitosis)	solubility in G1/S (log2) (HeLa Kyoto [2])	solubility change mitosis (log2) (HeLa Kyoto [3])	melting temperature (HeLa Kyoto [4]; cell cycle stage: G1/S)	melting temperature (HeLa Kyoto [4]; cell cycle stage: mitosis)
MLVLRSALTRALASRTLAPQMCSSFATGPRQYDGIFYEFRSYYLKPSKMNEFLENFEKNAHLRTAHSELVGYWSVEFGGRMNTVFHIWKYDNFAHRTEVRKALAKDKEWQEQFLIPNLALIDKQESEITYLVPWCKLEKPPKEGVYELATFQMKPGGPALWGDAFKRAVHAHVNLGYTKLVGVFHTEYGALNRVHVLWWNESADSRAAGRHKSHEDPRVVAAVRESVNYLVSQQNMLLIPTSFSPLK [NIPSNAP3A]	-1.76	-2.47	-0.107	-0.224	56.2 °C	57.7 °C
MNSIKNVPARVLSRRPGHSLEAEREQFDKTQAISISKAINTQEAPVKEKHARRIILGTHHEKGAFTFWSYAIGLPLPSSSILSWKFCHVLHKVLRDGHPNVLHDCQRYRSNIREIGDLWGHLHDRYGQLVNVYTKLLLTKISFHLKHPQFPAGLEVTDEVLEKAAGTDVNNIFQLTVEMFDYMDCELKLSESVFRQLNTAIAVSQMSSGQCRLAPLIQVIQDCSHLYHYTVKLLFKLHSCLPADTLQGHRDRFHEQFHSLRNFFRRASDMLYFKRLIQIPRLPEGPPNFLRASALAEHIKPVVVIPEEAPEDEEPENLIEISTGPPAGEPVVVADLFDQTFGPPNGSVKDDRDLQIESLKREVEMLRSELEKIKLEAQRYIAQLKSQVNALEGELEEQRKQKQKALVDNEQLRHELAQLRAAQLEGERSQGLREEAERKASATEARYNKLKEKHSELVHVHAELLRKNADTAKQLTVTQQSQEEVARVKEQLAFQVEQVKRESELKLEEKSDQLEKLKRELEAKAGELARAQEALSHTEQSKSELSSRLDTLSAEKDALSGAVRQREADLLAAQSLVRETEAALSREQQRSSQEQGELQGRLAERESQEQGLRQRLLDEQFAVLRGAAAEAAGILQDAVSKLDDPLHLRCTSSPDYLVSRAQEALDAVSTLEEGHAQYLTSLADASALVAALTRFSHLAADTIINGGATSHLAPTDPADRLIDTCRECGARALELMGQLQDQQALRHMQASLVRTPLQGILQLGQELKPKSLDVRQEELGAVVDKEMAATSAAIEDAVRRIEDMMNQARHASSGVKLEVNERILNSCTDLMKAIRLLVTTSTSLQKEIVESGRGAATQQEFYAKNSRWTEGLISASKAVGWGATQLVEAADKVVLHTGKYEELIVCSHEIAASTAQLVAASKVKANKHSPHLSRLQECSRTVNERAANVVASTKSGQEQIEDRDTMDFSGLSLIKLKKQEMETQVRVLELEKTLEAERMRLGELRKQHYVLAGASGSPGEEVAIRPSTAPRSVTTKKPPLAQKPSVAPRQDHQLDKKDGIYPAQLVNY [HIP1R]	-0.263	0.371	-0.0581	-0.0177	50 °C	49.5 °C
MAPGCKTELRSVTNGQSNQPSNEGDAIKVFVRIRPPAERSGSADGEQNLCLSVLSSTSLRLHSNPEPKTFTFDHVADVDTTQESVFATVAKSIVESCMSGYNGTIFAYGQTGSGKTFTMMGPSESDNFSHNLRGVIPRSFEYLFSLIDREKEKAGAGKSFLCKCSFIEIYNEQIYDLLDSASAGLYLREHIKKGVFVVGAVEQVVTSAAEAYQVLSGGWRNRRVASTSMNRESSRSHAVFTITIESMEKSNEIVNIRTSLLNLVDLAGSERQKDTHAEGMRLKEAGNINRSLSCLGQVITALVDVGNGKQRHVCYRDSKLTFLLRDSLGGNAKTAIIANVHPGSRCFGETLSTLNFAQRAKLIKNKAVVNEDTQGNVSQLQAEVKRLKEQLAELASGQTPPESFLTRDKKKTNYMEYFQEAMLFFKKSEQEKKSLIEKVTQLEDLTLKKEKFIQSNKMIVKFREDQIIRLEKLHKESRGGFLPEEQDRLLSELRNEIQTLREQIEHHPRVAKYAMENHSLREENRRLRLLEPVKRAQEMDAQTIAKLEKAFSEISGMEKSDKNQQGFSPKAQKEPCLFANTEKLKAQLLQIQTELNNSKQEYEEFKELTRKRQLELESELQSLQKANLNLENLLEATKACKRQEVSQLNKIHAETLKIITTPTKAYQLHSRPVPKLSPEMGSFGSLYTQNSSILDNDILNEPVPPEMNEQAFEAISEELRTVQEQMSALQAKLDEEEHKNLKLQQHVDKLEHHSTQMQELFSSERIDWTKQQEELLSQLNVLEKQLQETQTKNDFLKSEVHDLRVVLHSADKELSSVKLEYSSFKTNQEKEFNKLSERHMHVQLQLDNLRLENEKLLESKACLQDSYDNLQEIMKFEIDQLSRNLQNFKKENETLKSDLNNLMELLEAEKERNNKLSLQFEEDKENSSKEILKVLEAVRQEKQKETAKCEQQMAKVQKLEESLLATEKVISSLEKSRDSDKKVVADLMNQIQELRTSVCEKTETIDTLKQELKDINCKYNSALVDREESRVLIKKQEVDILDLKETLRLRILSEDIERDMLCEDLAHATEQLNMLTEASKKHSGLLQSAQEELTKKEALIQELQHKLNQKKEEVEQKKNEYNFKMRQLEHVMDSAAEDPQSPKTPPHFQTHLAKLLETQEQEIEDGRASKTSLEHLVTKLNEDREVKNAEILRMKEQLREMENLRLESQQLIEKNWLLQGQLDDIKRQKENSDQNHPDNQQLKNEQEESIKERLAKSKIVEEMLKMKADLEEVQSALYNKEMECLRMTDEVERTQTLESKAFQEKEQLRSKLEEMYEERERTSQEMEMLRKQVECLAEENGKLVGHQNLHQKIQYVVRLKKENVRLAEETEKLRAENVFLKEKKRSES [KIF15]	0.584	1.61	0.087	-0.0831	48.4 °C	49.4 °C
MSAEVKVTGQNQEQFLLLAKSAKGAALATLIHQVLEAPGVYVFGELLDMPNVRELAESDFASTFRLLTVFAYGTYADYLAEARNLPPLTEAQKNKLRHLSVVTLAAKVKCIPYAVLLEALALRNVRQLEDLVIEAVYADVLRGSLDQRNQRLEVDYSIGRDIQRQDLSAIARTLQEWCVGCEVVLSGIEEQVSRANQHKEQQLGLKQQIESEVANLKKTIKVTTAAAAAATSQDPEQHLTELREPAPGTNQRQPSKKASKGKGLRGSAKIWSKSN [COPS7A]	-1.47	-1.53	0.458	0.216	53.9 °C	54 °C
MAKTVAYFYDPDVGNFHYGAGHPMKPHRLALTHSLVLHYGLYKKMIVFKPYQASQHDMCRFHSEDYIDFLQRVSPTNMQGFTKSLNAFNVGDDCPVFPGLFEFCSRYTGASLQGATQLNNKICDIAINWAGGLHHAKKFEASGFCYVNDIVIGILELLKYHPRVLYIDIDIHHGDGVQEAFYLTDRVMTVSFHKYGNYFFPGTGDMYEVGAESGRYYCLNVPLRDGIDDQSYKHLFQPVINQVVDFYQPTCIVLQCGADSLGCDRLGCFNLSIRGHGECVEYVKSFNIPLLVLGGGGYTVRNVARCWTYETSLLVEEAISEELPYSEYFEYFAPDFTLHPDVSTRIENQNSRQYLDQIRQTIFENLKMLNHAPSVQIHDVPADLLTYDRTDEADAEERGPEENYSRPEAPNEFYDGDHDNDKESDVEI [HDAC3]	1.43	1.96	-0.055	-0.161		52.6 °C
MEEHSYIQKELDLQNGSLEEDSVVHSVENDSQNMMESLSPKKYSSSLRFKANGDYSGSYLTLSQPVPAKRSPSPLGTSVRSSPSLAKIQGSKQFSYDGTDKNIPMKPPTPLLNTTSSLSGYPLGRADFDHYTGRDSERALRLSEKPPYSKYSSRHKSHDNVYSLGGLEGRKASGSLLAMWNGSSLSDAGPPPISRSGAASMPSSPKQARKMSIQDSLALQPKLTRHKELASENINLRTRKYSSSSLSHMGAYSRSLPRLYRATENQLTPLSLPPRNSLGNSKRTKLGEKDLPHSVIDNDNYLNFSSLSSGALPYKTSASEGNPYVSSTLSVPASPRVARKMLLASTSSCASDDFDQASYVGTNPSHSLLAGESDRVFATRRNFSCGSVEFDEADLESLRQASGTPQPALRERKSSISSISGRDDLMDYHRRQREERLREQEMERLERQRLETILSLCAEYTKPDSRLSTGTTVEDVQKINKELEKLQLSDEESVFEEALMSPDTRYRCHRKDSLPDADLASCGSLSQSSASFFTPRSTRNDELLSDLTRTPPPPSSTFPKASSESSYLSILPKTPEGISEEQRSQELAAMEETRIVILNNLEELKQKIKDINDQMDESFRELDMECALLDGEQKSETTELMKEKEILDHLNRKIAELEKNIVGEKTKEKVKLDAEREKLERLQELYSEQKTQLDNCPESMREQLQQQLKRDADLLDVESKHFEDLEFQQLEHESRLDEEKENLTQQLLREVAEYQRNIVSRKEKISALKKQANHIVQQAQREQDHFVKEKNNLIMMLQREKENLCNLEKKYSSLSGGKGFPVNPNTLKEGYISVNEINEPCGNSTNLSPSTQFPADADAVATEPATAVLASQPQSKEHFRSLEERKKQHKEGLYLSDTLPRKKTTSSISPHFSSATMGRSITPKAHLPLGQSNSCGSVLPPSLAAMAKDSESRRMLRGYNHQQMSEGHRQKSEFYNRTASESNVYLNSFHYPDHSYKDQAFDTLSLDSSDSMETSISACSPDNISSASTSNIARIEEMERLLKQAHAEKTRLLESREREMEAKKRALEEEKRRREILEKRLQEETSQRQKLIEKEVKIRERQRAQARPLTRYLPVRKEDFDLRSHVETAGHNIDTCYHVSITEKTCRGFLIKMGGKIKTWKKRWFVFDRNKRTFSYYADKHETKLKGVIYFQAIEEVYYDHLKNANKSPNPLLTFSVKTHDRIYYMVAPSPEAMRIWMDVIVTGAEGYTHFLL [PHLDB2]	-0.165	1.44	-0.28	0.164	48.9 °C	49.1 °C
MSSSHFASRHRKDISTEMIRTKIAHRKSLSQKENRHKEYERNRHFGLKDVNIPTLEGRILVELDETSQGLVPEKTNVKPRAMKTILGDQRKQMLQKYKEEKQLQKLKEQREKAKRGIFKVGRYRPDMPCFLLSNQNAVKAEPKKAIPSSVRITRSKAKDQMEQTKIDNESDVRAIRPGPRQTSEKKVSDKEKKVVQPVMPTSLRMTRSATQAAKQVPRTVSSTTARKPVTRAANENEPEGKVPSKGRPAKNVETKPDKGISCKVDSEENTLNSQTNATSGMNPDGVLSKMENLPEINTAKIKGKNSFAPKDFMFQPLDGLKTYQVTPMTPRSANAFLTPSYTWTPLKTEVDESQATKEILAQKCKTYSTKTIQQDSNKLPCPLGPLTVWHEEHVLNKNEATTKNLNGLPIKEVPSLERNEGRIAQPHHGVPYFRNILQSETEKLTSHCFEWDRKLELDIPDDAKDLIRTAVGQTRLLMKERFKQFEGLVDDCEYKRGIKETTCTDLDGFWDMVSFQIEDVIHKFNNLIKLEESGWQVNNNMNHNMNKNVFRKKVVSGIASKPKQDDAGRIAARNRLAAIKNAMRERIRQEECAETAVSVIPKEVDKIVFDAGFFRVESPVKLFSGLSVSSEGPSQRLGTPKSVNKAVSQSRNEMGIPQQTTSPENAGPQNTKSEHVKKTLFLSIPESRSSIEDAQCPGLPDLIEENHVVNKTDLKVDCLSSERMSLPLLAGGVADDINTNKKEGISDVVEGMELNSSITSQDVLMSSPEKNTASQNSILEEGETKISQSELFDNKSLTTECHLLDSPGLNCSNPFTQLERRHQEHARHISFGGNLITFSPLQPGEF [DLGAP5]	0.319	1.63	0.097	-0.122	49.6 °C	49.5 °C
MCNTPTYCDLGKAAKDVFNKGYGFGMVKIDLKTKSCSGVEFSTSGHAYTDTGKASGNLETKYKVCNYGLTFTQKWNTDNTLGTEISWENKLAEGLKLTLDTIFVPNTGKKSGKLKASYKRDCFSVGSNVDIDFSGPTIYGWAVLAFEGWLAGYQMSFDTAKSKLSQNNFALGYKAADFQLHTHVNDGTEFGGSIYQKVNEKIETSINLAWTAGSNNTRFGIAAKYMLDCRTSLSAKVNNASLIGLGYTQTLRPGVKLTLSALIDGKNFSAGGHKVGLGFELEA [VDAC3]	-1.43	-4.76	-0.0264	-0.0561	61.6 °C	59.9 °C
